# According to PMC3832974:
# B1: Apt 4 (ssDNA)
# DNA: AGATGCCTGTCGAGCATGCTCTTTGGAGACAGTCCGTGGTAGGGCAGGTTGGGGTGACTTCGTGGAAGAAGCGAGACGGTGTAGCTAAACTGCTTTGTCGACGGG
# Biological target: human alpha-thrombin (Homo sapiens, UniProt P00734;P00734 328-363;364-622)
# Assay: dot blot immunoenzymatic assay on cloth; 13.5 nM thrombin; UV cross-linked; PBS (0.01 M phosphate pH 7.4, 0.85% NaCl), 13.5 nM thrombin, 20 min, room temperature; aptamers (10 uM) spotted in 0.1 M Tris-HCl pH 8.0, 0.01 M MgCl2, 0.15 M N
binder,measurement,value
B1,binding result,binds
